From the nanobody polyreactivity screen of Harvey et al. (2022)

Assay: yeast display, Sf9 membrane polyspecificity reagent, FACS + sequencing; frameworks hold sequencing errors
How it was run: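 Nanobodies from a synthetic yeast display library (Saccharomyces cerevisiae BJ5465), induced 36–48 hours with galactose, were stained 1 hour at 4 °C with 10% biotinylated, detergent-solubilized Sf9 membrane reagent, enriched on streptavidin microbeads, then FACS-sorted. Anti-HA (expression) and streptavidin (reagent binding) fluorescence set low and high (top ~1%) gates. Polyreactivity labels come from the gate of origin. Genes were colony-PCR amplified, MiSeq 2 × 250 sequenced and filtered by CDR length.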

Sequence	polyreactivity (PSR sort gate)
QVQLVESGGGLVQAGGSLRLSCAASGSTFGRNAMGWYIQAPGKERELVAAISNRGGRTYYADSVKARFTISRDNAKNTVYFQMNSLKPEDTAVYYCAAEHRVQQGDYWGQGTQVTVSS	high polyreactivity
QVQLVESGGGLVQAGGSLRLSCAASGSTFVINAMGWYRQAPGKERELVAAISYDGGGTYYADSVKGRFTISRDNAKNTVYLQMNSLKPEDTAGYYCAAENFYPYTYYASDYWGQGTHVTVSS	high polyreactivity
QVQLVESGGGLVQAGGSLRLSCAASGGTFPRYAMGWYRQAPGKERELVAAITRSGGRTYYADSVKGRFTISRDNAKNTVYLQMNSLKPEDTAVYYCAADAPDYRMDYWGQGTQVTVSS	high polyreactivity
QVQLVESGGGLVQAGGSLRLSCAASGRIFATNAMGWYIQAPGKERELVAAISWDGGSTYYADSVKGRFTISRDNAKNTVYLQMNSLKPEDTAVYYCNKVLYYAYDYWGQGTQVTVSS	low polyreactivity
QVQLVESGGALVQAGGSLRLSCAASGSTFDANVMGWYRQAPGKERELVAAISRDTNTYYADSVKGRFTISRDNAKNTVYLQMNSLKPEDTAVYYYWGQGTQVTVSS	low polyreactivity
QVQLVESGGGLVQAGGSLRLSCAASGFTFRAYAMGWYRPAPAKERELVAAISTGGGSTYYADSVKGRFTISRDIAKHTVYLQLNSLKPEDTAVYYCNALPQRRYYYWGQGTQVTVSS	high polyreactivity
QVQLVESGGCLVQAGGSLRLSCAATGRTFHGYAMGWYRQAPGKERELVAAITSSGARTYYADSVKGRFTISRDNAKNTVYLQMNSLKPEDTAVYYCAKRGKQYRKMNYWGQGTQVTVSS	high polyreactivity
QVQIVESGGGLVQAGGSLRLSCAASGRTFRANAMGWYRQAPGKERELVAAIRTGTRTYYADSVKGRFTISRDNANNTVYFQMNSLKTVDSAVYYCAARYYHPYSHGYWQERDYWGQGTKVTVSS	high polyreactivity
QVQLVESGGGLVQAGGSLRLSCAASGRTFGFYAMGWDRQAPGKERELVAVITWSVTSTYYADSVKGRFTISRDNAKNTVYLQMNSLKPEDTAVYYCAAEYVVGASSVRDSLDYGYWGQGTQVTVSS	high polyreactivity
QVQLVESGGGLVQAGGSLRLSCAASGRIFAYYAMGWYRQAPGKERELVAAISSGGTTNYADSVKGRFTISRDNAKITVYLQMNSLIPEDTAVYYCNADGWRRSRQYYYWGQGTQVTVSS	low polyreactivity
QVQLVESGGGLVQAGGSLRLSCAASGRIFRYNAMGLYRQAPGKERELVAVITSRGGRTYYADSVKGRFTISRDNAKNTVYLQMNSLKPEDTAVYYCTAKRYRYYRWYFTGKYDYWGQGTQVTVSS	high polyreactivity
QVQLVESGGGLVQAGGSLRLSCAASGPTFLYNAMGWYRQAPGKERELVAAISRSAVSTYYADSVKGRFTISRDNAKNTVYLQINSLKPDDTAVYYCSADYRGRYATYRSYASVLYDYWGQGTQVTVSW	low polyreactivity
QVQLVESGGGLVQAGGSLRLSCAASGSISGLYAKGWYRQAPGKERELVAAITFRDGTTSYADSVKGRFTISRDNAKNTVYLQMNSLKPEDTAVYYCAAVDRDSNSSVPTLVHWGQGTQVTVSS	low polyreactivity
QVQLVESGGGLVQAGGSLRLSCAASGRTFYWNAMGWYRQAPGKERELVAGISRGGGITYYADSVKGRFTISRDNAKYTVYLQMNSLKPEDTAVYYCNSRAGRQLARYGYWGQGTQVTVSS	high polyreactivity
QVQLQERGGGLVQAGGSLRLSCAASGNIFEADIMGWYHQAQGKDRELVASITDGGSTNYADSVKGRFTINRDNAKNKVSRQMNSLKPEDTALYYCAAYGNARLKEHYYWGQGTQVTVSS	high polyreactivity
QVQLVESGGGLVQAGGSLRLSCAASGFTIRRYAMGWYRQAPGKERELVAAITRSAGSTYYADSVKGRFTISRDNAKNTVYLQMNSLKPEDTAVYYCAARWTRWGADSGYYWGQGTQVTVSS	high polyreactivity
QVQLVESGGGLVQAGGSLRLSCAASGFTFWYNTMGWYRQAPGKERELVAAINRGGGRTYYADSVKGRFTISRDNAKNTVYLQMNSLKPEDTAVYYCAKKDYYSKVGGPQSEYDYWGQGTQVTVSS	low polyreactivity
QVQLVESGGGLVQAGGSLRLSCAASGRIFYPYAMGWYRQAPGQERELVAVINGSGGSTYYADSVKGRFTISRDNAKNTVYLQMNSLKPEDTAVYYCAAVGAYSRNEYDYWGQGTQVTVSS	high polyreactivity
QVHLVESGGGLVQAGGSLRLSCAASGFTFESYAMGWYRQAPGKERELVAAISDGGGDTYYADSVKGRFTISRDNAKNTVYLQMNSLKQEDTAVYYCAAEWDGNWYRGAGGYDYWGQGTQVTVSS	low polyreactivity
QVQLVESGGGLVQARGSLRLSCAASGGTFLSYAMGWYRQAPGKERELVAGISSGGSTNYADSVKGRFTISRDNAKNTVYLQMNSLKPEDTAVDYCAADSFPSEFDYWGQGTQVTVSS	low polyreactivity
QVQLVESGGGLVQAGGSLRLSCAASGLIFGVNAMGWYRQAPGKEREFVARITRSGSSTYYADSVKGRFTISRDNAKNTVYLQMNSLKPEDTAVYYCAVDLFYKYDWGQGTQVTVSS	high polyreactivity
QVQLVESVGGLVQAGRILRISCAASGFTLYYYDKGWYRQAPGKQRELVAGISSGDSTYYADSLKGRFTISRDNAKNTVYLHMNSLKPEDTAVYYCATGDSLYYRYWSNNYWGQGTQVTVSS	high polyreactivity

Sequence	polyreactivity (PSR sort gate)
QVQLVESGGGLVQAGGSLRLSCAASGNIFARYAMGWYRQATGKERDLVSAISRSGGSTYYADSVKGRFTISRDNAKNSVYLQMKCLKPEDTAVYYCNAKSYGVLYWFAYDYWGQGTQVTVSS	high polyreactivity
QVQLVESGGGLVQAGGSLRLSCAASGSIFGSNAMGWYRQARGKERELVASISKRGGSTYYADSVKGRFTISRDNAKNTVYVQMNSLKPEDTAVYSCAARSYYNGKISRVGYWGQGTQVTVSS	high polyreactivity
QVQLVESGGGLVQAGGSLRLSCASSGFTFWYYAMGWYRQAPGKERELVASISRTGGTTYYADSVKGRFTISRDNAKNTVYLQMNSLKPEDTAVYYCNARPKVYYREYDYWGQGTQVSVSS	high polyreactivity
QVQLVESCGGLVQAGGSLRLSCAASGITYVYYAMGWYRQAPGKERELVAGITSGTSTYYADSVKGRFTISRDNAKNTVYLQINSLKPEDTAVYYCATGYRRGSTYGYWGQGTQVTVSS	low polyreactivity
QVQLVESGGGLVQAGGSLRLSCAASGRIFFHNAMGWYRQARGKERELVAAISYSGGSTYYADSVKGRFTIARDNAKNTVYLQMNSLKPEDTAVYYCNRYGNSYYFPPGPLYNYWGQGTQVTVSS	high polyreactivity
QVQLVESGGGLVQAGGSLRLSCAASGRTFNGYAMGWYRQAPGKERELVAAITWNGGRTSYADSVKGRFTISRDNAKNTVYLQMNSLKPEDTAVYYCATAVLYPYFFSNMDYWGQGTQVTVSS	low polyreactivity
QVQLVESGGCLVQAGGSLRLSCAASGSTFVYYAMGWYRQAPGKESELVAAITSGGSTYYADSVKGRFTISRDNAKNTVYLQMNSLKPEDTAVYYCATDYTWFGYRYDYWGQGTQVTVSS	low polyreactivity
QVQLVESGGGLVQAGGSLRLSCAASGFIFTGYTMGWYRQAPGKERELVARISSGDSTKYADSVKGRFTISRDNAKNTVYLQMNSLKPEDTAVYYCAATTGYTARWRNRYIYYYWGQGTQVTVSS	high polyreactivity
QVQRVESGGGLVQAGGSLRLSCADSGFIFRRYAMGWYRQAPGKERELVAAITSSGGTTYYADSVKGRFTISRDNAKNTVYLQMNSLKPEDTAVYYCNAVRGVYARRSDYWGQGTEVTVSS	high polyreactivity
QVLLQESGGGLVQAGGSLRLSCAASGSIFLFYTMGWSRQAPVKEREFVAGITLGTTTYNADSVKGRFTISRDNVKNTVYLQMNSLKPEDTAVYYCAVAVGHYTEFWYWGQGTQVTMSS	high polyreactivity
QVQLVESGGGLLHAGGSLRLSCAASGLIFSDYVMGWYRQAPWKERELVAGITTGGSTKYADSVKWRFTISRDNAKTTVYLQMNSLKPEDTAVYYCAVGKYNYRGSWDYYWGQGTQVTLSS	high polyreactivity
QVQHVESGGGLVQAGGSLRLSCAASGFTFSYNAMGWNRQAPGKERELVAAISATGDGNTYYADSVKGRFTISRDNAKNTVYLQMNSLNPEDTAVYFCNRLPQYALPYRHNGYWGQGTQVTVSS	low polyreactivity
QVQLVESGGGLVQPGGSLRLSCAASGSIFYCNAMGSYRQAPGKEREFVAGITTSGGSTYYADSVKGRFTISRDNAKNTVYLQMNSLKPDDTAVYYCNKVWVYAVTPSSWYKYGSWGQGNQVTVSS	low polyreactivity
QVQLVESGGGLVQAGGSLRLSCDASGSIFRSYAMGWYRQAPGKERELVASITRSSGSTYYADSVKGRFTISRDNAKNTVYLQMNSLKPEDTAVYYCAAYTGVRGYYYWGQGTQVTVSS	high polyreactivity
QVQLVESGGGIVQAGGSLRLSCAASGSIFVHNDMGWYRQAPGKERELVARINTGGGTNYADSVKGRFTISRDNAKNTVYLEMNSLKPEDTAVYYCATDGDRYDHYFTDPEFDYWGQGTQVTVSS	low polyreactivity
QVQLVESGGGLVQAGGSLRLSCAASGITFQNYAMGWYRQAPGKERELVAAITGRGGSTYYADSVKGRFTISRDNAKHTVYLQMNSLKPEDTAVYYCATDRRGYRDDYWGQGTQVTVSS	high polyreactivity
QVQLVESGGGLVQAGGSLRLSCAASGSIFSPNAMGWYRQAPGKERELVAAITDSGGSTYYADSVKGRFTISRDNAKNTVYLQMNSLKPEDTAVYYCAVATGLLYKSHGYWGQATQVTVSS	low polyreactivity
QVQLQESGGGLLQAGGSLRLSCAASGNIFLSIFMGWYRQAPGKEREFVAGIGSGTNTNYADSVKGRFTISRDNAKNTVYLQMNSLKPEDTAGYYSAAGRFGLYYHGYWGLGTQVTVSS	high polyreactivity
QVQLVESGGGLVQAGGSLRLSCAASGSIFPINAMGWYRQAPGKERELVAVITSGGGGTYYADSVKGRFTISRDNAKNTVYLQMNSLKPEDSAVYYCAKRLSRKWQKFGYWGQGSQVTVSS	low polyreactivity
QVQLVESGGGLVQAGGSLRLSFAASGHTFRYYAMGWYRQAPGKERELVAAITGGGGSTYYADSVKGRFTISRDNAKNTVYFQMNSLKPEDTAVYYCATGGVSGMVGGDYWGQGTQVTVSS	low polyreactivity
QVQLVESGGGLVQAGGSLRLSCAASGSTFATYAMGWYRQAPGKERELVAAITLRGGRTYYADSVKGRFTISRDNAKNTVYLQMNSLKPEDTAVYYCAAEYYYLSFGLTWWRGFDYWGQGTQVTVSS	high polyreactivity
